Target: methylated PP2A C subunit (epitope-tagged, immunoprecipitated), P67775
Sequence (P67775 whole entry): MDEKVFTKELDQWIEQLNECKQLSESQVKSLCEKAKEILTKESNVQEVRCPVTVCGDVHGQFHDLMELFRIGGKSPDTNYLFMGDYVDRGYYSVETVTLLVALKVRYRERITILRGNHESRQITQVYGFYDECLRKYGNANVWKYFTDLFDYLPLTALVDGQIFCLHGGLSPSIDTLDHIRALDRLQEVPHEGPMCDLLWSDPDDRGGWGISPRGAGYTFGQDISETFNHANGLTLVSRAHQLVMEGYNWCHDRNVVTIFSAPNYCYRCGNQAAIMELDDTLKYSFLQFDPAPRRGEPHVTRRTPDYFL

B1: recombinant human Protein Phosphatase Methylesterase-1 (PME-1) (protein)
chain: MSALEKSMHLGRLPSRPPLPGSGGSQSGAKMRMGPGRKRDFSPVPWSQYFESMEDVEVENETGKDTFRVYKSGSEGPVLLLLHGGGHSALSWAVFTAAIISRVQCRIVALDLRSHGETKVKNPEDLSAETMAKDVGNVVEAMYGDLPPPIMLIGHSMGGAIAVHTASSNLVPSLLGLCMIDVVEGTAMDALNSMQNFLRGRPKTFKSLENAIEWSVKSGQIRNLESARVSMVGQVKQCEGITSPEGSKSIVEGIIEEEEEDEEGSESISKRKKEDDMETKKDHPYTWRIELAKTEKYWDGWFRGLSNLFLSCPIPKLLLLAGVDRLDKDLTIGQMQGKFQMQVLPQCGHAVHEDAPDKVAEAVATFLIRHRFAEPIGGFQCVFPGC
PP2A methylesterase activity: demethylation of immunoprecipitated C subunit, immunoblot with methylation-sensitive antibody 4b7: human PME-1 is a PP2A methylesterase
amount of 3H-methyl groups remaining on C subunit after 1 h at 32° C., SDS-PAGE: PME-1 was clearly able to demethylate PP2A C subunit as measured by this assay
methylesterase activity towards PP2A C subunit: lysates of bacteria expressing PME-1 contain a PP2A methylesterase activity not found in bacterial lysates lacking PME-1
signal of the antibody that only recognizes unmethylated PP2A against a methylation-insensitive antibody, immunoblot: PME-1 was clearly able to demethylate PP2A C subunit, as measured by this assay
